Assay [1] deals with NTSR3/Sortilin (endogenous, C13NJ microglial cell line). The experiment in a line: cell-based or functional assay.
Assay [2] has as its system mice. The experiment in a line: Elevated plus-maze. The assay is classed as in vivo, mouse. Conditions: spadin i.p. 10^-5 M, diazepam i.p. 0.5 mg/kg. The source says: Elevated plus-maze. The apparatus consisted of two open and two enclosed arms of the same size (45×5 cm) with walls 15 cm high. The arms, constructed of black acrylic, radiate from a common central platform (5×5 cm) to form a plus sign. Open arms were arranged opposite to one another, as were closed arms. The maze was elevated to a height of 45 cm above floor level. Each mouse was placed in the central platform facing one of the open arms. The number of entries into the open and closed arms and the time spent on the open and closed arms were recorded during a 5 min test period. Time spent in the unprotected open arms as well as the number of entries in open arms in relation to the total of arm entries are used as experimental indices of anxiety.

Assay [3] has as its system mice. Description: Light/dark exploration. The assay is classed as in vivo, mouse. The settings on record: spadin i.p. 10^-5 M, diazepam i.p. 0.5 mg/kg. On the procedure: The apparatus consisted of a cage (25×40×20 cm) divided into two compartments by a black partition containing a small opening that allows mouse to move from one compartment to the other. One compartment, comprising […] of the surface area, was made of white plastic and was brightly illuminated. The adjoining smaller compartment was black and dark. Mice were placed in the white compartment and allowed to move freely between the two chambers for 5 minutes. The number of transitions between the two compartments, time spent in the white chamber, and latency to the first transition were recorded. Mice tend to avoid the white compartment. Thus the measures of exploration in this area (time and entrances) were used as experimental indices of anxiety.

Assay [4] concerns mice. Description: Staircase test. The assay is classed as in vivo, mouse. The settings on record: spadin i.p. 10^-5 M, diazepam i.p. 0.5 mg/kg. The method, then: The apparatus comprised an enclosed staircase consisted of five identical steps (2.5 cm in height×11 cm in width×7.5 cm in length), each made of black plastic. The height of the walls was constant (12.5 cm above the stairs) along the entire length of the staircase. Each mouse was placed individually on the floor of the staircase with its back to the staircase. A step was considered climbed only if the mouse placed all four paws on it. Rearing was recorded when the mouse rose on its hind legs either on the step or against the wall. The number of steps ascended and the number of rearings made in a 3-min period were recorded. Results were expressed as ratio of rearing/step numbers.

Assay [5] deals with T1, NTSR3/Sortilin (Homo sapiens, UniProt Q99523).
T1 sequence (Q99523 78-831): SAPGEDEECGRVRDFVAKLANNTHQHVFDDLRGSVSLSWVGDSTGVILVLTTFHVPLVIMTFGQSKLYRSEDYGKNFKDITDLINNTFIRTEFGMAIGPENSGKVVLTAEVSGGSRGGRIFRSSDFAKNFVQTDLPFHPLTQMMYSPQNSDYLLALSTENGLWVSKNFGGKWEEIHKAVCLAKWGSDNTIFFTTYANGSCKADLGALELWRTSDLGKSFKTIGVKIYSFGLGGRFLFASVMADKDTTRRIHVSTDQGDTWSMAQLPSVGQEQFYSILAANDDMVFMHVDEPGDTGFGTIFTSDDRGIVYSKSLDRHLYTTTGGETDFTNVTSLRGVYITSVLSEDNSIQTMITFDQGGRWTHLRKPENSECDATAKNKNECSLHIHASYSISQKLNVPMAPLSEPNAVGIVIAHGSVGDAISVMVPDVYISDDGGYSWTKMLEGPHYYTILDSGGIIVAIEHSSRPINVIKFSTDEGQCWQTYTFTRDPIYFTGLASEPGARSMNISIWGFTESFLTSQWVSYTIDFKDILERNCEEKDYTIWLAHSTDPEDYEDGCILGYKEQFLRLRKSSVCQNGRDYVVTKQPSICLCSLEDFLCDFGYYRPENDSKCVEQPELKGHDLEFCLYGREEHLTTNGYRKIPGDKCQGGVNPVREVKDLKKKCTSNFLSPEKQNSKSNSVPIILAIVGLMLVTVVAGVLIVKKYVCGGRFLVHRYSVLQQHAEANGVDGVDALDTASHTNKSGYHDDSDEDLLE
The settings on record: cited from earlier work; for binding activity / affinity for NTSR3/Sortilin: structure-function studies [15].

Assay [6] addresses T2, TREK-1 (Mus musculus, UniProt P97438).
T2 sequence (P97438 1-426): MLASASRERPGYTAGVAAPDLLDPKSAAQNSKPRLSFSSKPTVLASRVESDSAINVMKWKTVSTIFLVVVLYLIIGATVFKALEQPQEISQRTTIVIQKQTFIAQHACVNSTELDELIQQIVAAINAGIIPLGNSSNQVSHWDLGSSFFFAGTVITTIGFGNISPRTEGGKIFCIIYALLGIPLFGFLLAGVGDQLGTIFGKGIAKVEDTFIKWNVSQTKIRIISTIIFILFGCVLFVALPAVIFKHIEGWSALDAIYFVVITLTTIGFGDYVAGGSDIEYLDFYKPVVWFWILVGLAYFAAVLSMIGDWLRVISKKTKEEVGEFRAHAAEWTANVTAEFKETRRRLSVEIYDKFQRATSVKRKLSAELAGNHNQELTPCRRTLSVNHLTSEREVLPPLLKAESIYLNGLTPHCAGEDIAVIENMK
The experiment in a line: Whole-cell patch-clamp on TREK-1 transfected COS-7 cells. The settings on record: 500 nM, 10 μM aa, at 0 mV, n=4. The assay is classed as cell-based. On the set-up: GFP; expressed in transfected cells; host or cells: COS-7 (DEAE-dextran transfection). The method, then:
All electrophysiological experiments were done on COS-7 cells seeded at a density of 20,000 cells/35-mm dish 24 h before transfection. Cells were transfected by the classical DEAE-dextran method with TREK-1-GFP plasmids (0.1 μg/μL). Cells were visualized 48-72 h after transfection using fluorescence.
The whole-cell patch-clamp technique was used to evaluate TREK-1 potassium channel current by using a RK 400 patch-clamp amplifier (Axon Instruments, U.S.A.), as previously described. Currents were lowpass filtered at 3 kHz, digitized at 10 kHz using a 12-bit analog-to-digital converter. […] The bath solution contained (in mM): 150 NaCl, 5 KCl, 3 MgCl2, 1 CaCl2, and 10 HEPES, adjusted to pH 7.4 with NaOH; the patch pipette solution contained (in mM): 155 KCl, 3 MgCl2, 5 EGTA, and 10 HEPES, adjusted to pH 7.2 with KOH. Cells were clamped at −80 mV and voltage changes were either applied by ramp (from −100 to 50 mV, 1 s in duration) or by step (from −100 to 40 mV, 1.5 s in duration). Cells were continuously superfused with a microperfusion system. The pipette capacitance was not subtracted from total membrane capacitance and there was no leak substraction. All experiments were done at room temperature (21° C. to 22° C.) and in the presence of a cocktail of potassium channel inhibitors (K^+ blockers: 10 mM tetraethyl ammonium (TEA), 3 mM 4-aminopyridine (4-AP), 50 nM charybdotoxin, 10 μM glibenclamide, 100 nM apamin).
Pclamp software was used to analyze currents recorded in the whole-cell mode measured at 0 mV. Results are expressed as means±SD. To obtain the IC50 value for dose-dependent inhibition, experimental data were fitted with a standard sigmoidal function.

In assay [7] the target is T2, TREK-1. Description: Whole-cell patch-clamp on CA3 pyramidal neurons in hippocampus brain slices. Type of assay: cell-based. On the set-up: a cellular network that endogenously expresses both TREK-1 and NTSR3/Sortilin; from tissue; host or cells: mouse hippocampal brain slices, CA3 pyramidal neurons. Conditions: wild-type CA3 neurons, K+ blockers, 10 μM aa, n=12.
Assay [8] addresses T2, TREK-1. Description: Whole-cell patch-clamp on cultured pyramidal neurons from hippocampus. The assay is classed as cell-based. On the set-up: endogenous in cells; host or cells: primary hippocampal pyramidal neurons from newborn mice. Conditions: 10 μM, K+ blockers, at -50 mV, 7 out of 70 neurons. On the procedure: A, Cultured pyramidal neuron from hippocampus, with on top, the patch-clamp pipette. Neurons were chosen according to their morphology. B, Current recorded in response to ramps of potential obtained in the various conditions indicated (aa: arachidonic acid: 10 μM, Spadin: 1[…]μM, Fluoxetine: 20 μM). Neurons were recorded in the whole-cell configuration of the patch-clamp technique. In voltage-clamp, ramps of potential from −90 mV to 70 mV were applied every 10 sec. The % variation of the current amplitude was always measured at −50 mV. The currents were recorded in response to such ramps in control conditions and in the presence of a cocktail of potassium blockers suitable to isolate the TREK currents (10 mM tetraethyl ammonium (TEA), 3 mM 4-aminopyridine (4-AP), 50 nM charybdotoxin, 10 μM glibenclamide, 100 nM apamin). […] The blocks were reversible. C, Time course of spadin and fluoxetine effects. Applications are indicated by the horizontal bars.
Cortical neurons were prepared from 14 old mouse embryos whereas hippocampal neurons were prepared from new born mice. Briefly, dissected brain areas were dissociated and neurons were plated on polylysine-treated 35 or 60 mm dishes and maintained in culture in Neurobasal medium supplemented with B27, Glutamax and antibiotics for 2 to 3 weeks before to be used for electrophsysiological or biochemical experiments.

For assay [9], the target named is TREK-1 channel (expressed by transfection in COS-7 cells). Description: cell-based or functional assay.
Assay [10] shares this target. The experiment in a line: competition with 0.2 nM 125I-spadin on TREK-1 transfected COS-7 cell homogenates, filtration.

Where two headings read alike, the source gives them in different places. No end group written: not given here.

TREK-1 channel (expressed by transfection in COS-7 cells), sequence (O95069 whole entry): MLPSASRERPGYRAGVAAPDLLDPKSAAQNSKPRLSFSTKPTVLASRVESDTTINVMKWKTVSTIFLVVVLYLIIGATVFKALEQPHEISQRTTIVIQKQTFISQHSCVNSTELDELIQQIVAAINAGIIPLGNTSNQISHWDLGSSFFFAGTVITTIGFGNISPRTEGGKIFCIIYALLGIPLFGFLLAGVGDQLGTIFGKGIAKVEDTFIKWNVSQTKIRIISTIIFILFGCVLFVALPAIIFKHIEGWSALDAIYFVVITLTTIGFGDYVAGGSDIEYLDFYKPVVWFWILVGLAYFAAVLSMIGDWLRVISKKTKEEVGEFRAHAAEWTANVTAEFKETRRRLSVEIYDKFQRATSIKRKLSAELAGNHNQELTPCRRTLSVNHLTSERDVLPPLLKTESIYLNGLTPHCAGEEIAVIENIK

“neurotensin (from UniProt P30990 151-163) (peptide)” came in with a C13NJ cell migration in wound-healing assay with 10 nM NT (% of migration with 10% FCS) in [1] of 35.1%. As for `CN1C(=O)CN=C(c2ccccc2)c2cc(Cl)ccc21` [diazepam, reference compound], in [2], the “time spent in the open arms” value is listed as “significantly reduced the time spent into the aversive open arms”. In addition, the “number of light/dark transitions” value in [3] is listed as “significantly induced an increase”. In addition, the rearing/step numbers ratio result in [4] is given as “decrease of the rearing/step numbers ratio”. With “QDRLDAPPPPAAPLPRWSGPIGVSWGLRAAAAGGAFPRGGRWRR [propeptide, 44 residue N-terminal propeptide released from prosortilin by furin]”, the Kd in [5] (read-out: Kd for the mature receptor) was approximately 5 nM. Moreover, in [6], the “block of aa stimulated TREK-1 current” value worked out at 41±5%.

With “Gln^1-Arg^28: peptide Gln1-Arg28 of the NTSR3/Sortilin propeptide, from literature”, the figures for the “binding activity / affinity for NTSR3/Sortilin” value in [5] and in [5] (listed as Gln^1-Arg^16) were “as efficient on the binding activity as the entire propeptide” and “very low”, respectively. Turning to `CCCCC/C=C\C/C=C\C/C=C\C/C=C\CCCC(=O)O` [arachidonic acid, Arachidonic acid], the “increase of amplitude of the remaining current” value in assay [7] is given as 23.3+4.8%. In [8], the “increase of remaining current” value was “about 50%”. In assay [9], “NTSR3/Sortilin (expressed by transfection in COS-7 cells) (from UniProt Q99523 78-831) (receptor)” yielded an expression of TREK-1 within the plasma membranes (cell surface biotinylation, Western blot) of 6 fold and an expression of TREK-1 within the plasma membranes (purified plasma membranes, Western blot) of 3 fold. As to QDRLDAPPPPAAPLPR [N-terminal fragment Gln1-Arg16 of the full length propeptide], the affinity in [10] is 1 µM.

Regarding APLPRWSGPIGVSWGLR (also: monoiodinated (125I) on Tyr0, an added N-terminal Tyr not in given chain) [125I-spadin], in assay [9], the share of cell-bound 125I-spadin resistant to the acid-NaCl wash (intracellular) on TREK-1 expressing COS-7 cells at 37° C. stood at 80%.
